Laboratory results: the supplement of paper PMC10567573

B1: PLAGL1 (parent)
chain: TKEKKHQCDHCERCFYTRKDVRRH

Variants of: B1
Experiment: protein stability index of a GFP-peptide fusion (GPS, HEK-293T) (PSI 1-6); higher = more stable
Conditions: c terminus: a fixed tail appended
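Further: lentivirally expressed fusions sorted by FACS into six bins by GFP to DsRed ratio, PSI derived from sequencing read proportions per bin multiplied by bin number.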

Going from TKEKQHQCDHCERCFYTRKDVRRH [K5Q] to TKEKMHQCDHCERCFYTRKDVRRH [K5M], the protein stability index rises from 3.67 to 3.81.

First: TKEKYHQCDHCERCFYTRKDVRRH [K5Y]
Second: TKEKNHQCDHCERCFYTRKDVRRH [K5N]
The protein stability index of the first is higher: 3.19 for the first, 3.03 for the second.

First: TKEKGHQCDHCERCFYTRKDVRRH [K5G]
Second: TKEKIHQCDHCERCFYTRKDVRRH [K5I]
The protein stability index of the first is lower: 3.04 for the first, 3.13 for the second.

First: TKEKVHQCDHCERCFYTRKDVRRH [K5V]
Second: TKEKRHQCDHCERCFYTRKDVRRH [K5R]
The protein stability index of the first is lower: 3.63 for the first, 3.75 for the second.

Compared with TKEKEHQCDHCERCFYTRKDVRRH [K5E], TKEKAHQCDHCERCFYTRKDVRRH [K5A] is higher in protein stability index: 3.67 for the first, 3.78 for the second.

First: TKEKFHQCDHCERCFYTRKDVRRH [K5F]
Second: TKEKPHQCDHCERCFYTRKDVRRH [K5P]
The protein stability index of the first is lower: 3.22 for the first, 3.67 for the second.

Going from TKEKLHQCDHCERCFYTRKDVRRH [K5L] to TKEKCHQCDHCERCFYTRKDVRRH [K5C], the protein stability index falls from 3.67 to 2.59.

First: TKEKSHQCDHCERCFYTRKDVRRH [K5S]
Second: TKEKTHQCDHCERCFYTRKDVRRH [K5T]
The protein stability index of the first is higher: 3.46 for the first, 3.22 for the second.

Going from TKEKDHQCDHCERCFYTRKDVRRH [K5D] to TKEKHHQCDHCERCFYTRKDVRRH [K5H], the protein stability index rises from 3.53 to 3.82.

Going from KKEKKHQCDHCERCFYTRKDVRRH [T1K] to QKEKKHQCDHCERCFYTRKDVRRH [T1Q], the protein stability index falls from 3.59 to 3.52.

First: AKEKKHQCDHCERCFYTRKDVRRH [T1A]
Second: SKEKKHQCDHCERCFYTRKDVRRH [T1S]
The protein stability index of the first is lower: 3.1 for the first, 3.46 for the second.

Going from DKEKKHQCDHCERCFYTRKDVRRH [T1D] to CKEKKHQCDHCERCFYTRKDVRRH [T1C], the protein stability index rises from 3.04 to 3.75.

Going from HKEKKHQCDHCERCFYTRKDVRRH [T1H] to MKEKKHQCDHCERCFYTRKDVRRH [T1M], the protein stability index rises from 3.12 to 3.39.

Going from YKEKKHQCDHCERCFYTRKDVRRH [T1Y] to RKEKKHQCDHCERCFYTRKDVRRH [T1R], the protein stability index rises from 3.31 to 3.37.

Going from WKEKKHQCDHCERCFYTRKDVRRH [T1W] to IKEKKHQCDHCERCFYTRKDVRRH [T1I], the protein stability index rises from 3.54 to 3.57.

Going from NKEKKHQCDHCERCFYTRKDVRRH [T1N] to LKEKKHQCDHCERCFYTRKDVRRH [T1L], the protein stability index falls from 3.38 to 3.34.

Compared with GKEKKHQCDHCERCFYTRKDVRRH [T1G], PKEKKHQCDHCERCFYTRKDVRRH [T1P] is lower in protein stability index: 3.68 for the first, 3.48 for the second.

Going from FKEKKHQCDHCERCFYTRKDVRRH [T1F] to VKEKKHQCDHCERCFYTRKDVRRH [T1V], the protein stability index rises from 3.1 to 3.5.

First: EKEKKHQCDHCERCFYTRKDVRRH [T1E]
Second: TKQKKHQCDHCERCFYTRKDVRRH [E3Q]
The protein stability index of the first is higher: 3.82 for the first, 3.35 for the second.

First: TKSKKHQCDHCERCFYTRKDVRRH [E3S]
Second: TKTKKHQCDHCERCFYTRKDVRRH [E3T]
The protein stability index of the first is higher: 3.48 for the first, 3.32 for the second.

First: TKVKKHQCDHCERCFYTRKDVRRH [E3V]
Second: TKCKKHQCDHCERCFYTRKDVRRH [E3C]
The protein stability index of the first is lower: 3.28 for the first, 4.51 for the second.

Compared with TKKKKHQCDHCERCFYTRKDVRRH [E3K], TKWKKHQCDHCERCFYTRKDVRRH [E3W] is lower in protein stability index: 3.5 for the first, 2.73 for the second.

Compared with TKGKKHQCDHCERCFYTRKDVRRH [E3G], TKDKKHQCDHCERCFYTRKDVRRH [E3D] is higher in protein stability index: 3.45 for the first, 3.49 for the second.

Compared with TKPKKHQCDHCERCFYTRKDVRRH [E3P], TKMKKHQCDHCERCFYTRKDVRRH [E3M] is lower in protein stability index: 3.63 for the first, 3.53 for the second.

Going from TKFKKHQCDHCERCFYTRKDVRRH [E3F] to TKIKKHQCDHCERCFYTRKDVRRH [E3I], the protein stability index falls from 3.29 to 3.01.

First: TKRKKHQCDHCERCFYTRKDVRRH [E3R]
Second: TKYKKHQCDHCERCFYTRKDVRRH [E3Y]
The protein stability index of the first is higher: 3.59 for the first, 3.12 for the second.

Compared with TKHKKHQCDHCERCFYTRKDVRRH [E3H], TKNKKHQCDHCERCFYTRKDVRRH [E3N] is higher in protein stability index: 3.55 for the first, 3.59 for the second.

Going from TKLKKHQCDHCERCFYTRKDVRRH [E3L] to TKAKKHQCDHCERCFYTRKDVRRH [E3A], the protein stability index rises from 3.14 to 3.31.

First: TKEKKHQVDHCERCFYTRKDVRRH [C8V]
Second: TKEKKHQPDHCERCFYTRKDVRRH [C8P]
The protein stability index of the first is lower: 3.12 for the first, 3.17 for the second.

Compared with TKEKKHQRDHCERCFYTRKDVRRH [C8R], TKEKKHQTDHCERCFYTRKDVRRH [C8T] is lower in protein stability index: 3.42 for the first, 3.24 for the second.

Compared with TKEKKHQWDHCERCFYTRKDVRRH [C8W], TKEKKHQSDHCERCFYTRKDVRRH [C8S] is higher in protein stability index: 2.75 for the first, 3.48 for the second.

First: TKEKKHQHDHCERCFYTRKDVRRH [C8H]
Second: TKEKKHQQDHCERCFYTRKDVRRH [C8Q]
The protein stability index of the first is lower: 3.25 for the first, 3.53 for the second.

Going from TKEKKHQIDHCERCFYTRKDVRRH [C8I] to TKEKKHQEDHCERCFYTRKDVRRH [C8E], the protein stability index rises from 3.1 to 3.84.

First: TKEKKHQGDHCERCFYTRKDVRRH [C8G]
Second: TKEKKHQNDHCERCFYTRKDVRRH [C8N]
The protein stability index of the first is lower: 3.02 for the first, 3.29 for the second.

First: TKEKKHQMDHCERCFYTRKDVRRH [C8M]
Second: TKEKKHQDDHCERCFYTRKDVRRH [C8D]
The protein stability index of the first is lower: 2.98 for the first, 3.61 for the second.

Compared with TKEKKHQYDHCERCFYTRKDVRRH [C8Y], TKEKKHQKDHCERCFYTRKDVRRH [C8K] is higher in protein stability index: 2.78 for the first, 3.43 for the second.

First: TKEKKHQLDHCERCFYTRKDVRRH [C8L]
Second: TKEKKHQADHCERCFYTRKDVRRH [C8A]
The protein stability index of the first is higher: 3.56 for the first, 3.53 for the second.

First: TKEKKHQFDHCERCFYTRKDVRRH [C8F]
Second: TKEKKEQCDHCERCFYTRKDVRRH [H6E]
The protein stability index of the first is lower: 2.6 for the first, 3.55 for the second.

First: TKEKKYQCDHCERCFYTRKDVRRH [H6Y]
Second: TKEKKRQCDHCERCFYTRKDVRRH [H6R]
The protein stability index of the first is higher: 3.43 for the first, 2.95 for the second.

Going from TKEKKSQCDHCERCFYTRKDVRRH [H6S] to TKEKKWQCDHCERCFYTRKDVRRH [H6W], the protein stability index falls from 2.88 to 2.51.

First: TKEKKIQCDHCERCFYTRKDVRRH [H6I]
Second: TKEKKFQCDHCERCFYTRKDVRRH [H6F]
The protein stability index of the first is lower: 2.94 for the first, 3.01 for the second.

Compared with TKEKKCQCDHCERCFYTRKDVRRH [H6C], TKEKKGQCDHCERCFYTRKDVRRH [H6G] is lower in protein stability index: 3.7 for the first, 2.88 for the second.

Compared with TKEKKKQCDHCERCFYTRKDVRRH [H6K], TKEKKQQCDHCERCFYTRKDVRRH [H6Q] is lower in protein stability index: 3.19 for the first, 3.08 for the second.

First: TKEKKNQCDHCERCFYTRKDVRRH [H6N]
Second: TKEKKPQCDHCERCFYTRKDVRRH [H6P]
The protein stability index of the first is higher: 3.33 for the first, 2.94 for the second.

First: TKEKKDQCDHCERCFYTRKDVRRH [H6D]
Second: TKEKKTQCDHCERCFYTRKDVRRH [H6T]
The protein stability index of the first is higher: 2.91 for the first, 2.86 for the second.

Compared with TKEKKMQCDHCERCFYTRKDVRRH [H6M], TKEKKLQCDHCERCFYTRKDVRRH [H6L] is lower in protein stability index: 2.7 for the first, 2.5 for the second.

Compared with TKEKKAQCDHCERCFYTRKDVRRH [H6A], TKEKKVQCDHCERCFYTRKDVRRH [H6V] is higher in protein stability index: 2.39 for the first, 2.67 for the second.
